Paper PMC6754406 (2019)
Values belong to the binder of their own block, whether it stands above or below them. Where no end group is shown, it is not given here. [ ]: non-standard residue; d: D form. pS = N[C@@H](COP(=O)(O)O)C(=O)O

B1: GM130-S25D (phosphomimetic GM130 (1-85) mutant), non-tagged (domain or fragment)
chain: MSEETRQSKLAAAKKKLREYQQRNDPGVPTGAKKKKKIKNGSNPETTTSGGCHSPEDTPKDNAATLQPSDDTVLPGGVPSPGASL
B2: GM130-WT (wild type GM130 N-terminal region, a.a. 1-85), non-tagged (domain or fragment)
chain: MSEETRQSKLAAAKKKLREYQQRNSPGVPTGAKKKKKIKNGSNPETTTSGGCHSPEDTPKDNAATLQPSDDTVLPGGVPSPGASL

Tests used:
[1] = molecular target: Importin-α(ΔIBB) (Importin-α lacking the IBB domain, a.a. 70-524) (mouse, UniProt P52293 70-524); experiment: ITC; 200 mM NaCl
[2] = molecular target: B2; experiment: ITC
[3] = molecular target: B1; experiment: ITC
[4] = molecular target: T1, Importin-α FL (full-length Importin-α), recombinant (human, UniProt P52292 1-529); experiment: ITC; phospho-S25
[5] = molecular target: Importin-β, recombinant, non-tagged (human, UniProt Q14974 1-876); experiment: ITC; phospho-S25
[6] = molecular target: T1, Importin-α FL (full-length Importin-α), …; experiment: ITC

Chain of Importin-β, recombinant, non-tagged (Q14974 whole entry): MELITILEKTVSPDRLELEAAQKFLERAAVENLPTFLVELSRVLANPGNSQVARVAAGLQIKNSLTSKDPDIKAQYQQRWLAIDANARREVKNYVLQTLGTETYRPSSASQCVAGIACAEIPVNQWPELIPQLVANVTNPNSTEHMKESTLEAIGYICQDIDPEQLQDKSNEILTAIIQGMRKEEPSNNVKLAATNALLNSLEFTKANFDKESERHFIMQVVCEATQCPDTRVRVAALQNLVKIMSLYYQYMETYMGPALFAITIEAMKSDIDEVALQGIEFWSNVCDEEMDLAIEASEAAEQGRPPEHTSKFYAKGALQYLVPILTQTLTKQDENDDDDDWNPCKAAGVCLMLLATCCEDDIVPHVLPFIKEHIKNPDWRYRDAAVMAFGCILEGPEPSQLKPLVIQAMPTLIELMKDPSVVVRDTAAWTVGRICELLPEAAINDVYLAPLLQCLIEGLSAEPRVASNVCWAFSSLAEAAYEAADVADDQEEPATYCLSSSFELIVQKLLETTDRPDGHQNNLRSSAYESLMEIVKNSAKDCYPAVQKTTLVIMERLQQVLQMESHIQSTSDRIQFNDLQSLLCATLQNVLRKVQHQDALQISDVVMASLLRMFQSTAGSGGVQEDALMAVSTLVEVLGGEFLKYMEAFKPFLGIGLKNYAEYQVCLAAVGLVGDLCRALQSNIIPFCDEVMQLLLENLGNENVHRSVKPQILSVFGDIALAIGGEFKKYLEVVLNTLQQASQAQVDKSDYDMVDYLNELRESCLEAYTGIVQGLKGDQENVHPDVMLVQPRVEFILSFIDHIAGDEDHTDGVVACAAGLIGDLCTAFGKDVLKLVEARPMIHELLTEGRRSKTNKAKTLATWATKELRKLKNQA

Binder: B1
- Kd [1]: 227 nM

Binder: B2
- Kd [1]: 322 nM

The remaining lines, values ahead:

- Kd [2]: 823 nM
- Kd [3]: 985 nM
B3: p115-CTD (p115, a.a. 780-930) (domain or fragment)
chain: SARDSEQVAELKQELATLKSQLNSQSVEITKLQTEKQELLQKTEAFAKSVEVQGETETIIATKTTDVEGRLSALLQETKELKNEIKALSEERTAIKEQLDSSNSTIAILQTEKDKLELEITDSKKEQDDLLVLLADQDQKILSLKNKLKDL

- Kd [4]: 2100 nM
- Kd [5]: 270 nM
B4: GM130-NLS phospho-S25 (synthetic peptide with a phosphate moiety on Ser-25 of GM130, a.a. 13-40) (peptide)
chain: AKKKLREYQQRN[pS]PGVPTGAKKKKKIKN

- Kd [6]: 6900 nM
B5: GM130-NLS WT peptide (peptide)
chain: AKKKLREYQQRNSPGVPTGAKKKKKIK
